These results are taken from US20220145339A1, “METHOD FOR PREPARATION OF PRIMARY AMINE COMPOUNDS” (Max-Planck-Gesellschaft zur Förderung der Wissenschaften …, priority 2018, published 2022).

The conditions of series [1]: aqueous solution, hydrolyzes to oxaloacetate; calculated from data of Mortarino et al., 1996; cited from earlier work.
Series [2] concerns the molecule itself. As to the kind of experiment: X-ray crystal structure, self-association (homodimer).
The nature of series [3]: ISRed enzyme assay coupled with BHAD, NADH oxidation followed at 340 nm. It is filed as biochemical, Paracoccus denitrificans DSM 413. As for the experimental part:
The enzyme assay to generate aspartate from β-hydroxyaspartate (catalyzed by the BHAD and ISRed enzymes) was performed at 30° C. in a total volume of 300 μl. The reaction mixture contained 100 mM potassium phosphate pH 7.5, 1 mM BHA, 0.2 mM NADH, 0.57, 2.85, 5.7 or 11.4 μg BHAD enzyme and 0.57 μg ISRed enzyme. The oxidation of NADH was followed at 340 nm on a Cary 60 UV-Vis photospectrometer (Agilent) in quartz cuvettes with a pathlength of 10 mm (Hellma Analytics). BHA (=(2R,3S)-β-hydroxyaspartate) was custom-synthesized by the company NewChem (Newcastle upon Tyne, United Kingdom), and was determined to be >95% pure by NMR analysis.
The enzyme assay to determine the initial reaction velocity of the ISRed enzymes was performed by incubating BHA and the required cofactor NADH together with a fixed amount of the ISRed enzyme and varying amounts of the BHAD enzyme. The initial velocity depends on the amount of the BHAD enzyme present in the reaction mixture, and therefore on the amount of iminosuccinate that is produced by the BHAD enzyme and is available to the ISRed enzyme, as illustrated in FIG. 6. The initial reaction velocity of the ISRed enzyme approaches a maximum in a Michaelis-Menten kinetic fit. The preliminary vmax of the ISRed enzyme determined by this method is 270±10 U mg^−1.

Consider `N=C(CC(=O)O)C(=O)O` [iminosuccinate], for which, in series [1], the t1/2 is 1.48 s.

B1: iminosuccinate reductase from Paracoccus denitrificans DSM 413 (enzyme)
chain: MLVVAEKEIAGLMTPEAAFEAIEAVFASMARRKAYNFPVVREAIGHEDALYGFKGGFDASALVLGLKAGGYWPNNQKHNLINHQSTVFLFDPDTGRVSAAVGGNLLTALRTAAASAVSIKYLAPKGAKVLGMIGAGHQSAFQMRAAANVHRFEKVIGWNPHPEMLSRLADTAAELGLPFEAVELDRLGAEADVIVSITSSFSPLLMNEHVKGPTHIAAMGTDTKGKQELDPALVARARIFTDEVAQSVSIGECQHAIAAGLIREDQVGELGAVVAGDDPGRGDAEVTIFDGTGVGLQDLAVAQAVVELAKHKGVAQEVEI
notes: Recombinant enzyme expressed in E. coli BL21 AI from pET16b and purified on Ni-NTA; It was crystallised, soaked with NAD+, and is described as a homodimer (PDB ID 6QKH); also called ISRed; IRed; not shown: N-terminal His tag and Factor Xa site from vector pET16b
For B1, the binding result in series [2] was “binds”.

B2: ISRed: imine reductase enzyme from Paracoccus denitrificans DSM 413, amino acid sequence SEQ ID NO: 434, expressed in E. coli (protein)
chain: MLVVAEKEIAGLMTPEAAFEAIEAVFASMARRKAYNFPVVREAIGHEDALYGFKGGFDASALVLGLKAGGYWPNNQKHNLINHQSTVFLFDPDTGRVSAAVGGNLLTALRTAAASAVSIKYLAPKGAKVLGMIGAGHQSAFQMRAAANVHRFEKVIGWNPHPEMLSRLADTAAELGLPFEAVELDRLGAEADVIVSITSSFSPLLMNEHVKGPTHIAAMGTDTKGKQELDPALVARARIFTDEVAQSVSIGECQHAIAAGLIREDQVGELGAVVAGDDPGRGDAEVTIFDGTGVGLQDLAVAQAVVELAKHKGVAQEVEI
modifications: Paracoccus denitrificans DSM 413
For B2, the reaction catalyzed entry in series [3] (1 mM BHA, 0.2 mM NADH, BHAD and ISRed enzymes, 30° C., potassium phosphate pH 7.5) is on record as “catalyzes the conversion of iminosuccinate into L-aspartate”. The molecule also showed a vmax in series [3] (iminosuccinate synthesized in situ from BHA with varying amounts of BHAD enzyme, cofactor NADH, Michaelis-Menten fit, preliminary, n=1) of 270±10 U mg^−1.
